Results: patent EP2975062B1

Target: c-mpl receptor (TPO receptor), expressed from c-mpl-pcDNA3.1 in NIH-3T3 cells
Test: cell-based or functional assay

The relative fluorescence ratio (firefly/Renilla luciferase, c-fos-pGL3 reporter, NIH-3T3 transfected with c-mpl-pcDNA3.1): 1.65
Substance: recombinant human TPO (rhTPO) (from UniProt P40225 22-353) (ligand)
